Experiments:
[1] = biological target: L-arabinose isomerase from Lactobacillus reuteri DSMZ 17509 (Lactobacillus reuteri); assay: SEC; 190 mL Sephacryl S300 column, 50 mM potassium phosphate buffer pH 7.0, 150 mM NaCl; molecular weight marker kit for gel filtration; oligomer size from the apparent mass against the calculated subunit mass
[2] = biological target: the molecule itself; assay: as above

Molecule: L-arabinose isomerase from Lactobacillus reuteri DSMZ 17509 (enzyme)
- stoichiometry N [1]: 6

B1: D-xylose isomerase from Lactobacillus reuteri DSMZ 17509 (enzyme, UniProt Q5QG16 1-449, looked up)
chain: MADLWNNIDKIEYEGPHKSIKSGLFYQYYNPDEVILGKKMKDWLRFSVAYWHTFDQRLVDPFGDGTAQRPYDKYSDPMDCALAKVDYAFEFYNKLGVDFLCFHDRDLAPEGDTLRETNKNLDRVVDKIVEYQKATGMKVLWNTSNLFTNPRFLEGAGTAPSAEIYAYAAAQLKHSLEVGKRVGSENYVFWGGREGYESLWNTDMKREQSHIAKFFHMAKDYANEIGFDAQMLLEPKPKEPTTHQYDFDAATTINFMCEYGLDKDFKLNLEGNHANLAGHTYQHEIRVAREAGLLGSLDANQGDKLIGWDIDEYPSNLYETTAAMWEVIQNGSIGPRGGLNFDAKPRRTSFKPVDLFYGHIVGMDSFAAGLRVAAAMKEDGFLDDIIKERYSTWDEGLGKSIEDGNENFASLEEKVIDTPQSELLAATHSDHLEEIKDTINHYMIETLAK
- stoichiometry N [2]: 4
